The values that follow come from doi:10.1101/2024.10.25.620210, “The plastid-encoded RNA polymerase structures a logistic chain for light-induced photosynthesis” (bioRxiv, 2024).

The assay deals with T1, β’’ subunit of the Sinapis alba plastid-encoded RNA polymerase (SaPEP) (Sinapis alba, UniProt Q9THV5 1-1384).
T1 construct: source: native, in the PEP purified from Sinapis alba cotyledon chloroplasts (heparin, MonoQ, Superose 6)
T1 sequence (looked up): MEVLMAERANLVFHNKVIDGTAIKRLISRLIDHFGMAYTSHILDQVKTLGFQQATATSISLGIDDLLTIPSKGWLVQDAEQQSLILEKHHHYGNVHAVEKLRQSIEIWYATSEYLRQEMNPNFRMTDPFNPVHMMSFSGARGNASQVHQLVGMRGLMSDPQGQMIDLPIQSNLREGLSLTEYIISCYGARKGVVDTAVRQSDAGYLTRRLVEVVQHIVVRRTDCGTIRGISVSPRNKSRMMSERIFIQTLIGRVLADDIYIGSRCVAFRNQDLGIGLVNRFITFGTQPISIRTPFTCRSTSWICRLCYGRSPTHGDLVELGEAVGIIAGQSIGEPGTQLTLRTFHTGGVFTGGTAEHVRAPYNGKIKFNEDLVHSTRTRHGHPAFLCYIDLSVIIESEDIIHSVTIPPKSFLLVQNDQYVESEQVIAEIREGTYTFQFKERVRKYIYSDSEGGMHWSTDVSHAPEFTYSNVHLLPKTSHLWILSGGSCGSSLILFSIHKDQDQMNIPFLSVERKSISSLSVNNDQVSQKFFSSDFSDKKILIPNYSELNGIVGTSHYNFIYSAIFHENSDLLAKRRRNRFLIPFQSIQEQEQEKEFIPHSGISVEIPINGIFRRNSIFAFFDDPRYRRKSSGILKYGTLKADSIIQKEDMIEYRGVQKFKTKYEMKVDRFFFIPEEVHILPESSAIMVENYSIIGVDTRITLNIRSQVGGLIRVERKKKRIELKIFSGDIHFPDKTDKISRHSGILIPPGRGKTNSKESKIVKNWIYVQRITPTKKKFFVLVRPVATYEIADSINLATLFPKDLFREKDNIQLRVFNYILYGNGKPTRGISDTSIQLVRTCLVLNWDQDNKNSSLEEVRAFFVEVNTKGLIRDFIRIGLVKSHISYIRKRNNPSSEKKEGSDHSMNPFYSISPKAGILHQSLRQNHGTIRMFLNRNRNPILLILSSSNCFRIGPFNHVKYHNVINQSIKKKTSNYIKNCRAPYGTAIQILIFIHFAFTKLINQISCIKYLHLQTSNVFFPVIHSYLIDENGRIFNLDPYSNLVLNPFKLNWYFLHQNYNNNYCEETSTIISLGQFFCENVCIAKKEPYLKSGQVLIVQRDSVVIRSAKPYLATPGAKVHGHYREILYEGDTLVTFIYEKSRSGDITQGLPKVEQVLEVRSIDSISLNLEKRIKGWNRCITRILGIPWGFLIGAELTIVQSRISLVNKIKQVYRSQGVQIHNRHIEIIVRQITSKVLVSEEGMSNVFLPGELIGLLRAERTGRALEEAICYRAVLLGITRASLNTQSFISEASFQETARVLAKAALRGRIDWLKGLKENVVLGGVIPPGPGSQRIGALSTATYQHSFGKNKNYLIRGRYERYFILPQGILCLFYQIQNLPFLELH
Briefly: cryo-EM structure; native 21-subunit SaPEP purified from S. alba cotyledon chloroplasts; graphene oxide grids; consensus map 3.0 Å, multibody and composite maps; open conformation. As to conditions: both partners purified.

B1: β subunit of the Sinapis alba plastid-encoded RNA polymerase (SaPEP) (natural protein, UniProt P46818 1-1078, looked up)
chain: MINAKKMLGDGKEGTSTIPGFNQIQFEGFYRFIDQGLIEELSKFPKIEDIDHEIEFQLFVETYQLVEPLIKERDAVYESLTYSSELYVSAGLIWKTNRNMQEQRIFIGNIPLMNSLGTSIVNGIYRVVINQILQSPGIYYQSELDHNGISVYTGTIISDWGGRLELEIDKKARIWARVSRKQKISILVLSSAMGSNLREILENVCYPEIFLSFLTDKEKKKIGSKENAILEFYQQFSCVGGDPIFSESLCKELQKKFFHQRCELGRIGRRNINWRLNLNIPQNNIFLLPRDILAAADHLIGMKFGMGTLDDMNHLKNKRIRSVADLLQDQLGLALARLENVVKGTIGGAIRHKLIPPTQNLVTSTPLTTTYESFFGFHPLSQVLDRTNPLTQIVHGRKLSYLGPGGLTGRTANFRIRDIHPSHYGRICPIDTSEGINVGLIGSLSIHARIGDWGSLESPFYELVEKSKKAQIRMLFLSPSQDEYYMIAAGNSLALNRGIQEEQVVPARYRQEFLTIAWEEVHLRSIFPFQYFSIGASLIPFIEHNDANRALMSSNMQRQAVPLSRSEKCIVGTGLERQVALDSGVPAIAEHEGKILYTDTEKIILSGNENTLSIPLIMYQRSNKNTCMHQKPQVPRGKCIKKGQILADGAATVGGELALGKNVLVAYMPWEGYNFEDAVLISECLVYGDIYTSFHIRKYEIQTHVTTQGPERITKEIPHLEGRLLRNLDKNGIVMLGSWVETGDILVGKLTPQVAKESSYAPEDRLLRAILGIQVSTSKETCLKLPIGGRGRVIDVRWVQKKGGSSYNPEIIRVYISQKREIKVGDKVAGRHGNKGIISKILPRQDMPYLQDGRPVDMVFNPLGVPSRMNVGQIFECSLGLAGSLLDRHYRIAPFDERYEQEASRKLVFSELYEASKQTANPWVFEPEYPGKSRIFDGRTGDPFEQPVIIGKPYILKLIHQVDDKIHGRSSGHYALVTQQPLRGRSKQGGQRVGEMEVWALEGFGVAHILQEMLTYKSDHIRARQEVLGTTIIGGTIPKPEDAPESFRLLVRELRSLALELNHFLVSEKNFQINRKEV
notes: plastid-encoded β subunit of the S. alba PEP catalytic core; source: native, in the PEP purified from Sinapis alba cotyledon chloroplasts (heparin, MonoQ, Superose 6)
For B1, the binding result is given as “binds”.
